The values that follow come from IntAct's records for PubMed 17721439.

The target of experiment [1] is wnk4_human WNK4 (UniProt Q96J92).
Experiment [2] has the same target. This is another data set of the same source.
Experiment [3] has the same target. This is another data set of the same source.
The target in experiment [4] is SLC12A2 (UniProt P55011).
Experiment [5] concerns the target wnk1_human WNK1 (UniProt Q9H4A3).
Experiment [6] has as its target wnk4_human WNK4 (UniProt Q96J92). The source holds these as a separate data set.
The target is the same in experiment [7]. The source holds these as a separate data set.
The target is the same in experiment [8]. This is another data set of the same source.
Experiment [9] has the same target. The source holds these as a separate data set.
Experiment [10] has the same target. This is another data set of the same source.
Experiment [11] addresses SLC12A2 (UniProt P55011). The source holds these as a separate data set.
Experiment [12] concerns the target wnk1_human WNK1 (UniProt Q9H4A3). The source holds these as a separate data set.
Experiment [13] deals with wnk4_human WNK4 (UniProt Q96J92). The source holds these as a separate data set.

Sequence of wnk4_human WNK4 (Q96J92 whole entry): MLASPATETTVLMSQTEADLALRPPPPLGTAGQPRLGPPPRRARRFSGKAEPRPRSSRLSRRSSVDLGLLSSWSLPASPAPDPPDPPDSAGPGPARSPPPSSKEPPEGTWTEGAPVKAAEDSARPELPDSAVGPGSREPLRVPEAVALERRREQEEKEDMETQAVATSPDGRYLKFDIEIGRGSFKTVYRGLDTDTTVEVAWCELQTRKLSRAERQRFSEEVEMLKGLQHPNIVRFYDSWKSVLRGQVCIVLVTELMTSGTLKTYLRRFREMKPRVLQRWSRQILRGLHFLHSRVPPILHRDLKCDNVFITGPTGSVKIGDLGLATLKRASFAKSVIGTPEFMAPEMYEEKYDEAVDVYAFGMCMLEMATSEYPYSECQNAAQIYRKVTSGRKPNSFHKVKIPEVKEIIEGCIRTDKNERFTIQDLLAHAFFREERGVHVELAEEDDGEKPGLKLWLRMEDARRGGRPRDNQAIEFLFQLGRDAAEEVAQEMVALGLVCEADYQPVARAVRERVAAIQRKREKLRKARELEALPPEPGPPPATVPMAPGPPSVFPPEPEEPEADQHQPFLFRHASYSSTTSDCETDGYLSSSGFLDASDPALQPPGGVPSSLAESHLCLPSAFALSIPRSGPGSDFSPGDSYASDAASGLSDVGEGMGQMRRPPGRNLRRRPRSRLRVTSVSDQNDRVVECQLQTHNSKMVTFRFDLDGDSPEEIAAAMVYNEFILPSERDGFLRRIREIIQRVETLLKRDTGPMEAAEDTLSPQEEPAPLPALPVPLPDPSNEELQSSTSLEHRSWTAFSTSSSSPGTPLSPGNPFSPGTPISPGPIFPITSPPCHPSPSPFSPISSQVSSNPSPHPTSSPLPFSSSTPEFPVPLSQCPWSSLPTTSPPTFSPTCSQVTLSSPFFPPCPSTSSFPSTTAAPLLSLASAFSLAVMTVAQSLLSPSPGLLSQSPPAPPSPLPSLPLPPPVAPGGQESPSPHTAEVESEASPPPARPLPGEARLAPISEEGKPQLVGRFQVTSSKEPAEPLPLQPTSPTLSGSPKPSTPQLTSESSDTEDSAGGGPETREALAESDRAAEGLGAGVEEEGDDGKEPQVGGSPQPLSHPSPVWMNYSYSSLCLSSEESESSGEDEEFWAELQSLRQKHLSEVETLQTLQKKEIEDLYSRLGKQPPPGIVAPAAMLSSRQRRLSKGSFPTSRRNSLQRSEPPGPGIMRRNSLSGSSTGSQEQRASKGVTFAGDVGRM
Sequence of Serine/threonine-protein kinase OSR1 (Homo sapiens), O95747 L473A (O95747 whole entry L473A): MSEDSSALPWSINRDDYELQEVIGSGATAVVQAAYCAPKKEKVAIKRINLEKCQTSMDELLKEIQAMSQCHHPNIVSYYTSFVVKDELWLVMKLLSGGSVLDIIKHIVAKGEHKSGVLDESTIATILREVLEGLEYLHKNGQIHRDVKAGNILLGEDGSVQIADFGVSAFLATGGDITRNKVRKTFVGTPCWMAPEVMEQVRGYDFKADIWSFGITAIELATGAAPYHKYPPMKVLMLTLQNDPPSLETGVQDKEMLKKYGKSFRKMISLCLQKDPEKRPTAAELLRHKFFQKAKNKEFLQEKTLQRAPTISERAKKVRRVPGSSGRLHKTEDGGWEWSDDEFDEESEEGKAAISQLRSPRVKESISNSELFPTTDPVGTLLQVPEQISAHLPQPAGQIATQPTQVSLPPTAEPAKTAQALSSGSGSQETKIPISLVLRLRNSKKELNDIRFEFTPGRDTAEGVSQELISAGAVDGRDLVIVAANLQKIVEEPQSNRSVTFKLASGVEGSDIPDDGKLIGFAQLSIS
Sequence of Serine/threonine-protein kinase OSR1 (Homo sapiens), O95747 D459A (O95747 whole entry D459A): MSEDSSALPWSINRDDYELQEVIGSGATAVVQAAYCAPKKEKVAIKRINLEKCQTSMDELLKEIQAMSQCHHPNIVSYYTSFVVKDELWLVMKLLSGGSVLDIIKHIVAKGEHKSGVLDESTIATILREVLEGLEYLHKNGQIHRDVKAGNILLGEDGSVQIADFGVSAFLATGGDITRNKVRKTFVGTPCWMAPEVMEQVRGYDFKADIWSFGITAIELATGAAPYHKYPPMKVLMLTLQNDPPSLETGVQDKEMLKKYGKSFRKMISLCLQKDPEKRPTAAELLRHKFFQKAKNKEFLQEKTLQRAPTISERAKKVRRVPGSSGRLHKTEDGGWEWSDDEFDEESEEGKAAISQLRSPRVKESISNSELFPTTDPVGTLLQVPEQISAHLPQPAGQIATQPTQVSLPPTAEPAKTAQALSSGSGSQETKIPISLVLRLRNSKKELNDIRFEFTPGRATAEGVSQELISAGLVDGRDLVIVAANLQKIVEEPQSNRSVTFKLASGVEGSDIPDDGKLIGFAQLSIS
Sequence of SLC12A2 (P55011 whole entry): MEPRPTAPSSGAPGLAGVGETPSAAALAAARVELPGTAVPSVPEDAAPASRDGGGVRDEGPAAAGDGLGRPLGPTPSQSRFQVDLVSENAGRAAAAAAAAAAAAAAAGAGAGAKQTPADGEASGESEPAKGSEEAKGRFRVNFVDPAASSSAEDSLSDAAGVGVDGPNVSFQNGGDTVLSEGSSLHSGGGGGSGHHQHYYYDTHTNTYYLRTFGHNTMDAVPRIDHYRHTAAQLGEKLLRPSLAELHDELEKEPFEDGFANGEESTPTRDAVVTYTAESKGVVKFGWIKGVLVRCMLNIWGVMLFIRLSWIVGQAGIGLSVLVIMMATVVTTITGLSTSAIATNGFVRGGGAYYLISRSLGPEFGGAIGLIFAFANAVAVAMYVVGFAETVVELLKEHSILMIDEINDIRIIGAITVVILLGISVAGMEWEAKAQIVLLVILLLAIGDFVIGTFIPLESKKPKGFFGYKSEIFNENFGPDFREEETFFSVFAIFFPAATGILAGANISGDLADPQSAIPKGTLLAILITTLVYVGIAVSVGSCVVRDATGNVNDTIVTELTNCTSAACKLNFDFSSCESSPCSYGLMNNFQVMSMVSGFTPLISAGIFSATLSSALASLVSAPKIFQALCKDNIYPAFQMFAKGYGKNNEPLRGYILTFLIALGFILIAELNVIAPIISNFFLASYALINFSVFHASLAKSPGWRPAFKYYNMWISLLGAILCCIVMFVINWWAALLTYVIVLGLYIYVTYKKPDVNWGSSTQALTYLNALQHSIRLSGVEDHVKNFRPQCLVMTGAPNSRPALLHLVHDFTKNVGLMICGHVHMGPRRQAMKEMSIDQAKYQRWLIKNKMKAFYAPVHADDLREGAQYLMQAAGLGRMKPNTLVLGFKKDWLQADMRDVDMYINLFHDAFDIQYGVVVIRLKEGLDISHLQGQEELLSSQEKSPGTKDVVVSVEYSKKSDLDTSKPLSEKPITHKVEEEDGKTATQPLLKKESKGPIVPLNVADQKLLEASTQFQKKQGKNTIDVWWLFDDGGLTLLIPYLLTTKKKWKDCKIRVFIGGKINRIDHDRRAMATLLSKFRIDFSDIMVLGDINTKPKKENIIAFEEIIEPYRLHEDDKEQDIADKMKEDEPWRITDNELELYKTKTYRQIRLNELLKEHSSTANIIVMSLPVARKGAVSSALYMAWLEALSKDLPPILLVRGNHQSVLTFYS
Sequence of Serine/threonine-protein kinase OSR1 (Homo sapiens), O95747 A471L (O95747 whole entry A471L): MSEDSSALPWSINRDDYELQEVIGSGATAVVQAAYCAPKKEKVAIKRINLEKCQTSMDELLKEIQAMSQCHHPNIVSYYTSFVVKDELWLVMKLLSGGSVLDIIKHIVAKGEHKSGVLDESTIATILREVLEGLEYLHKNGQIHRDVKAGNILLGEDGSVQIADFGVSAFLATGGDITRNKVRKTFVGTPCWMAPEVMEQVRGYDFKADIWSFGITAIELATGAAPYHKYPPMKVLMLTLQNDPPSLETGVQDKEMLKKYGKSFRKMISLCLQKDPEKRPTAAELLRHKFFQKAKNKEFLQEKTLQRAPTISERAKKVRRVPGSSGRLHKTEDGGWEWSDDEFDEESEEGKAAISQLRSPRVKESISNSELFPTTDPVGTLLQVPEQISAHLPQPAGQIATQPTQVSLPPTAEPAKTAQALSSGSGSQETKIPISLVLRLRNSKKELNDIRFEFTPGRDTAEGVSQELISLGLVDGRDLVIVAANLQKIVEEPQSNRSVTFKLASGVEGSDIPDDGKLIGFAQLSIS
Sequence of Serine/threonine-protein kinase OSR1 (Homo sapiens), O95747 D449A (O95747 whole entry D449A): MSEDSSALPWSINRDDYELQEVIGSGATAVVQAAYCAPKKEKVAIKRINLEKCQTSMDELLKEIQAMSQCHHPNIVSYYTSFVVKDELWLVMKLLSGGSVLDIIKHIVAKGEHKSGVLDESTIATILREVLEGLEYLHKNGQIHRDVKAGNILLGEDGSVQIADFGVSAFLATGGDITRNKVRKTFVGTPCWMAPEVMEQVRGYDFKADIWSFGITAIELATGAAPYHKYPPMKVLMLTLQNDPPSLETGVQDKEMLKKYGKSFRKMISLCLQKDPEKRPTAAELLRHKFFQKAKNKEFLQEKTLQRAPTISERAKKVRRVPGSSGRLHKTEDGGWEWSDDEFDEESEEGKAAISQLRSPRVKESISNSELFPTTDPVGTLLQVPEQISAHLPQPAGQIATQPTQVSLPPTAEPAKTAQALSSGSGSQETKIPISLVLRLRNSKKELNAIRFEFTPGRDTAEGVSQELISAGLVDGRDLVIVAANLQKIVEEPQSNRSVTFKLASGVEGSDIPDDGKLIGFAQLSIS

For “Serine/threonine-protein kinase OSR1 (Homo sapiens), O95747 A471L”, the “effect of a mutation on the interaction” value in experiment [1] is reported as “decreasing interaction”.
Take “Serine/threonine-protein kinase OSR1 (Homo sapiens), O95747 D449A”: the “effect of a mutation on the interaction” value in [2] is on record as “decreasing interaction”.
For “Serine/threonine-protein kinase OSR1 (Homo sapiens), O95747 D459A”, the “effect of a mutation on the interaction” value in experiment [3], in experiment [4] and in experiment [5] was “disrupting interaction” in each case.
Consider “Serine/threonine-protein kinase OSR1 (Homo sapiens), O95747 E446A”, for which, in experiment [6], the “effect of a mutation on the interaction” value was “decreasing interaction”.
For “Serine/threonine-protein kinase OSR1 (Homo sapiens), O95747 E467A”, the “effect of a mutation on the interaction” value in experiment [7] is given as “disrupting interaction”.
Regarding “Serine/threonine-protein kinase OSR1 (Homo sapiens), O95747 I450A”, the “effect of a mutation on the interaction” value in experiment [8] is on record as “disrupting interaction”.
Consider “Serine/threonine-protein kinase OSR1 (Homo sapiens), O95747 L468F”, for which, in [9], the “effect of a mutation on the interaction” value was “disrupting interaction”.
With “Serine/threonine-protein kinase OSR1 (Homo sapiens), O95747 L473A”, the “effect of a mutation on the interaction” value in experiment [10], in experiment [11] and in experiment [12] was “disrupting interaction” throughout.
For the substance “Serine/threonine-protein kinase OSR1 (Homo sapiens), O95747 R451A”, the “effect of a mutation on the interaction” value in [13] is “decreasing interaction”.
